According to the RNAGym collection of RNA variant scans (doi:10.1073/pnas.2313332121):
Fewer inactive variants are shown than the library holds.

B1: TPR 5TU (parent)
chain: GGAUCUUCUCGAUCUAACAAAAAAGACAAAUCUGCCACAAAGCUUGAGAGCAUCUUCGGAUGCAGAGGCGGCAGCCUUCGGUGGCGCGAUAGCGCCAACGUUCUCAACUAUGACACGCAAAACGCGUGCUCCGUUGAAUGGAGUUUAUCAUG

Variants of: B1
Assay: polymerase ribozyme fitness, log enrichment relative to wild type (log ratio); higher = more active; in vitro selection for triplet polymerase activity
Outline: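 In triplicate, a single round of in vitro selection was run on each mutant library, PCR-built and transcribed, covering one subunit of a heterodimeric triplet polymerase ribozyme. Frozen incubation at −7 °C followed annealing with a biotinylated primer, partner subunit and triplets, and extended constructs were then gel-excised, streptavidin-captured and taken through RT-PCR. Fitness is the logarithm of genotype enrichment over wild-type enrichment, from inverse-variance-weighted replicate averages of Illumina-sequenced inputs and outputs. […] only genotypes with ≥10 input reads and ≥1 read per output were kept.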

Variant | polymerase ribozyme fitness (log ratio)
GGAUCUUCUCGAUCUAACAAAAAAGACCAAUCUGCCACAAAGCUUGAGAGCAUCUUCGGAUGCAGAGGCGGCAGCCUUCGGUGGCGAGAUAGCGCCAACGUUCUCAAGUAUGACACGCAAAACGCGUGCUCCGUUGAAUGGAGUUCAUCAUG | ≤ -4.2
GGAUCUUCUCGAUCUAACAAAAAAGACAAACCUGCCACAAAGCUUGAGAGCUUCUUCAGAUGCAGAGGCGGCAGCCUUCGGUGGCGCGAUAGCGGCAACGUUCUCAACUAUGACACGCAAAACGCGUGCUCCGUUGAAUGGAGUAUAUCAUG | -3.19
GGAUCUUCUCGAUCUAACAAAAAAGACAAAUCUGCCACAAAGUUUGAGAGCAUCUUCGGAUGCAGAGGCGGCAGCCUUCGGUGGCGCGAUAGCGCAAACGUUCUCAACUAUGACAGGCAAAACGCGUGCUCCGUUGUAUGGAGUUUAUCAUG | ≤ -4.2
GGAUCUUCUCGAUCCAACAAAAAAGACAAAUCUGCCACAAAGCUUGAGAGCAUCUACGGAUGCAGAGGAGGCAGCCUUCGGUGACGCGAUAGCGCCAACGUUCUCAACUAUGACACGCAAAACGCGUGCUCCGUUAAAUGGAGUUUAUCAUG | -0.468
GGAUCUUCUCGAUCUAACAAAAGAGAAAAAUUUGCCACAAAGCUUGAGACCAUCUUCGGAUGCAGAGGCGGCGGCCUUCGGUGGGGCGAUAGCGCCAACGUUCUCAACUAUGACACGCAAAACGCGUGCUCCGUUGAAUGGAGUUUAUCAUG | ≤ -4.2
GGAUCUUCUCGAUCUAACAAAAAAGACAAAUCUGCCACACAGCUUGAGAGGAUCUUCGGAAGCAGAGGCGGCAGCCUUCGGUGGCGCGAUAGCGGCAACGUUCUCAACUAUGACACGCAAAACGCGUGCUCCGUUGAAUGGAGUUUAUCAUG | ≤ -4.2
GGAUCUUCUCGAUCUAACAGAAAAGACAAAUCUGCCACAAAGCUUGAGAGCAUCUUCGGAUGCAGAGGCGGCAGCCUUCGGAGGCGCGAUAGCGCGAACGUUCUCAACUAUGACACGCAAAACGCGUGCUCCGUUGAAUGGAGUUUAUCAUG | 0.0125
GGAUCUUCUCGAUCUAACCAAAAAGACAAAUCUGCCAGAAAGCUUGAGAGCAUCUUCGGAUGCAGAGGCAGCAGCCUUCCGUGGCGCGAUAGCGCCAGCGUUCUCAACUAUGACACGUAAAACGCGUGCUCCGUUGAAUGGAGUUUAUCUUG | -3.77
GGAUCUUCUCGAUCUAACAAAAAAGACAAAUCUGGCACAAAGCUUGAUAGCAUCUUUGGAUGCAGAGGCGGCAGCCUUCGGUGGCGCGAUAGCGCCAACGUUCUCAACUUUGACAUGCAAAACGCGUGCUCCGUUGACUGGAGUUUAUCAUG | ≤ -4.2
GGAUCUUCUCGAUCUAACAAAAAAGACAAAGCUGCCACAAAGCUUGAGAGCAUCUUCGGAUGCAGAGGCGGCAGCCUUCGGUGUCGCGAUAGCGCCAACGUUCUCAACUAUGACACGCAAAACGCGUGCUCCGUUGAAUGGAGUUUAUCAUG | -0.431
GGAUCUUCUCGAUCUAACAAAAAAGACAAAUCUGUCACAAAGCUUGAGAGCAUCUUCGGAUGCAGAGGCGGCAGCCUUCGGUGGCGCGAUAGCGCCUACGUUCUCAACUAUGACACGCAAAACGCGUGCUCCGUUGAAUGGAGUUUAUCAUG | -2.26
GGAUCUUCUCGAUCUAACAAAAAAGACAAAUCUGCCACAAAGCUUGAGAGCAUCUUCGGAUGCAGAGCCGGCAGCCUUCGGUGGCGCGAUAGUGCCAACGUUCUCAACUAUGACACGCAAAACGCGUGCUCCGUUGAAUGGAGUUUAUCAUG | -4.04
GGAUCUUCUCGAUCUAACUAAAAAGACAAAUCUGCCCCAAAGCUUGAGAGCAUCUUCGGAUGCAGAGGCGGCAGCCUUCGGGGGCGCGUUAGCGGCCACGUUCUCAUCUAUGACACGCAAAACGCGAGCUCCGUUGAAUGGAGUUUAUCAUG | ≤ -4.2
GGAUCUUCUCGAUCUAACAAAAAAGACAAAUCUGCCACAAAGCUUGAGAGCGUCUUCGGAUGCAGAAGCGGCAGCCUUCGGUGGCGCGAUAGCGCCAACGUUCUCAACUAUGACACGCAAAACGCUUGCUCCGUUGAAUGGAGUUUAUCAUG | ≤ -4.2
GGAUCUUCUCGAUCUAACAAAAAAGUCAAAUCUGCCACAAAGCUUGAGAGCAUCUUCGGAUGCAGAGGCGGCAGCCUUCGGUGGCGCGAUAGCGCCAACGUUCUCAACUAUGACAUGCAAAACGCGUGCUCCGUUGAAUGGAGUUUAUCAUG | -1.09
GGAUCUUCUCGAUCUAACAAAAAAGACAAAUCUGCCACAAAGCUGGAGAGCAUCUUCGGAUGCAGAGGCGGCAGCCUUCGGUGGCGCGAUAGCGCCAACGUUCUCAACUAUGACACGCAAAACGCGUGCUCCGUUGAAUGGAGUUUAUCAUG | -0.42
GGAUCUUCUCGAUCUAACAAAAAAGACAAAUCUGCCACAAAGCUUGAGAGCAUCUUCGGAUGCAGAGGCGGCAGCCUUCGGUGGCGCGAUAGCGCCAACGGUCUCAACUAUGACACGCAAAACGCGUGCUCCGUUGAAUGGAGUGUAUCAUG | -0.0241
GGAUCUUCUCGAUCUAACAAAAAAGACAAAUCGGCCACAAAGCUUGAGAGCAUAUUCGGAUGCAGAGGCGGCAGCCUUCGGUGGCGCGAUAGCGCAAUCGUUCUCAACUAUGACACGCAAAACGCGUGCUCCGUUGAAUGGAGUUUAUCAUG | -4.06
GGAUCUUCUCGAUCUAACAUAAAAGACAAAUCUGCCACAAAGCUUGGGAGCAUCUUCGGAUGCAGAGGCGGCAGCCUUCGGUGGCGCGUUAGCGCCAACGUUCUUAACUAUGACACGCAAAACGCGUGCUCCGUUGAAUGGAGUUUAUCAUG | -2.65
